# Measured values taken from paper PMC10024333 (Iranian Journal of Pharmaceutical Research : IJPR, 2022).
# T1: Trx-CD20 (thioredoxin-tagged CD20/G4S cassette: Trx, ECL1, (G4S)3 linker, ECL2, C-terminal His-tag) (Homo sapiens, UniProt P11836)
# T1 chain: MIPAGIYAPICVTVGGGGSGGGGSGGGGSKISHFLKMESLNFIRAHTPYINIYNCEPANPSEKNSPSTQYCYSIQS
# B1: Zytux (rituximab, Aryogen Pharmed, Iran) (antibody, V domains shown)
# VH: QVQLQQPGAELVKPGASVKMSCKASGYTFTSYNMHWVKQTPGRGLEWIGAIYPGNGDTSYNQKFKGKATLTADKSSSTAYMQLSSLTSEDSAVYYCARSTYYGGDWYFNVWGAGTTVTVSA
# VL: QIVLSQSPAILSASPGEKVTMTCRASSSVSYIHWFQQKPGSSPKPWIYATSNLASGVPVRFSGSGSGTSYSLTISRVEAEDAATYYCQQWTSNPPTFGGGTKLEIK
# Target: T1, Trx-CD20 (thioredoxin-tagged CD20/G4S …)
# Test: ELISA
binder,measurement,value
B1,Ka,2.66e+12 M⁻¹
